B1: human LIF (source not stated) (ligand)
chain: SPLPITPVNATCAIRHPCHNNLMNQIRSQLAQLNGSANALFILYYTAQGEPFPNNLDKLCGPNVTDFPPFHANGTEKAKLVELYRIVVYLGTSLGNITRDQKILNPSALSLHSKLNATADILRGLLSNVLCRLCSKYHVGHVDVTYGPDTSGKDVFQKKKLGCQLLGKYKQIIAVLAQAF
notes: also called hLIF; endogenous LIF of U-251 cells

Tests used:
[1] = biological target: T1, recombinant human gp130 (human, UniProt P40189 23-619, limits assumed); test: ELISA: LIF pre-incubated with B09, added to a plate coated with gp130, detected through the antibody with peroxidase anti-rat IgG
T1 sequence (looked up): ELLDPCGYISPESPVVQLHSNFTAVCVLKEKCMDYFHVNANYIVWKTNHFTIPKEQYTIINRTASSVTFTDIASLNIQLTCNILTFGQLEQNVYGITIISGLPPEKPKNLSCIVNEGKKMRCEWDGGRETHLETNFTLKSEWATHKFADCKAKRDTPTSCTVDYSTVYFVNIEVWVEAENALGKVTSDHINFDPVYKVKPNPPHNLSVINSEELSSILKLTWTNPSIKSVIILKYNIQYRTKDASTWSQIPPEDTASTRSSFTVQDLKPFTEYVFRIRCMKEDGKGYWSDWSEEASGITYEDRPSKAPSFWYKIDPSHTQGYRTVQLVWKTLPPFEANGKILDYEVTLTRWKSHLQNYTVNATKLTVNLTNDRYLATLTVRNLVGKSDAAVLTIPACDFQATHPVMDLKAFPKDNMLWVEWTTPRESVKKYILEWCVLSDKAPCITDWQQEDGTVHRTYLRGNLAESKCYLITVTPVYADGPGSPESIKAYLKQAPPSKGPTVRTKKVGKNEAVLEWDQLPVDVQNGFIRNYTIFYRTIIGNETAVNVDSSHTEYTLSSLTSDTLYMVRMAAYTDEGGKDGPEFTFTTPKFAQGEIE

[2] = biological target: B1; test: cell-based or functional assay
[3] = biological target: T2, recombinant human LIFR (human, UniProt P42702 45-833, limits assumed); test: BLI (Octet RED96) control experiment, h5D8 on AHC sensors
T2 construct: also called hLIFR
T2 sequence (looked up): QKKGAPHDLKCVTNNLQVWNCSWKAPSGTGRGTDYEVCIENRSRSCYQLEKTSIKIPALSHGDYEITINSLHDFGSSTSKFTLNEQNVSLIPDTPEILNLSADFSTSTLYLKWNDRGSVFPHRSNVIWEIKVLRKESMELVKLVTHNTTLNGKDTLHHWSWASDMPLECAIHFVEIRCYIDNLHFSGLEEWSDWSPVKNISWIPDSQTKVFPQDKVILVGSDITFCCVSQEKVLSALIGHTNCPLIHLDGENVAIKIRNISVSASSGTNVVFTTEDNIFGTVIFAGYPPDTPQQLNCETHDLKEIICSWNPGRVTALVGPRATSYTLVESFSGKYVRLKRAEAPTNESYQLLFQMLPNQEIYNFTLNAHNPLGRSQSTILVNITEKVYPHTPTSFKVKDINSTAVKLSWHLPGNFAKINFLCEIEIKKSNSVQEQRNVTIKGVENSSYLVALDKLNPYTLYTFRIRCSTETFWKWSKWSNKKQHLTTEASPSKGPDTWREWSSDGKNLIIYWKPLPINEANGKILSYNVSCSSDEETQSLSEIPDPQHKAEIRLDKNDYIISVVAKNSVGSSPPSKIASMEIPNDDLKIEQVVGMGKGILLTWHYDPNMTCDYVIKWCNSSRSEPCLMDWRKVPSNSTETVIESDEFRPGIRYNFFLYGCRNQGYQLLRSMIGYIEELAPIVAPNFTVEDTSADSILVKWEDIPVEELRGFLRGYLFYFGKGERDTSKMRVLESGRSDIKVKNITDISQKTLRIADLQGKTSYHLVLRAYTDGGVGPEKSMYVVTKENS

[4] = biological target: T3, human IL-6 (E. coli) (human, UniProt P05231 30-212, limits assumed); test: BLI (Octet), h5D8 amine-coupled to AR2G sensors, cytokine analyte; legend: ND = no binding
T3 construct: also called huIL-6 (E. coli)
T3 sequence (P05231 30-212 limits assumed): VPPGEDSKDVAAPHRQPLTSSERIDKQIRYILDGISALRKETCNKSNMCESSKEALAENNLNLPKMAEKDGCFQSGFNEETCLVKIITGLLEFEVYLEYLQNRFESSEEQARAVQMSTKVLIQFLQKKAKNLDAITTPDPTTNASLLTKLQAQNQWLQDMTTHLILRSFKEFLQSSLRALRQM
Description: 9.0.0.26 as follows: Amine Reactive 2ndGeneration Biosensors (AR2G) were hydrated for a minimum of 15 minutes in water. […] Kinetics experiments were then performed with the following Dip and Read steps at 30° C., 1000 rpm: vi) 60 seconds Baseline in 1× kinetics buffer; vii) 180 seconds Association of appropriate serial dilutions of a cytokine in 1× kinetics buffer; viii) 300 seconds Dissociation in 1× kinetics buffer; ix) Three Regeneration/Neutralization cycles alternating between 10 mM glycine pH 2.0 and 1× kinetics buffer respectively (5 seconds in each for 3 cycles). Following regeneration, the biosensors were reused for subsequent binding analyses.

Binder | binding result [1] | IC50 for biological inhibition (pSTAT3, U-251 cells, serum starved, endogenous LIF) [2] | binding result [3] | binding result [4]
B1 | binds | – | – | –
h5D8 (humanized 5D8, H2L2) (antibody, V domains shown, Humanized by CDR grafting from rat 5D8; also called G (H2L2); H5D8-1 IgG) VH: QVQLQESGGGLVKPGGSLRLSCAASGFTFSHAWMHWVRQAPGKGLEWVGQIKAKSDDYATYYAESVKGRFTISRDDSKNTLYLQMNSLKTEDTAVYYCTCWEWDLDFWGQGTMVTVSS VL: DIVMTQTPLSSPVTLGQPASISCRSSQSLLDSDGHTYLNWLQQRPGQPPRLLIYSVSNLESGVPDRFSGSGAGTDFTLKISRVEAEDVGVYYCMQATHAPPYTFGQGTKLEIK | – | 490 picomolar | no binding | no binding

Reference: patent US20210130453A1 (AstraZeneca / MedImmune, published 2021)
